Assay: soluble on expression in E. coli; label from the status in PepcDB or PDB records

Row | Sequence | soluble on expression in E. coli
1 | AAAAAAMIVQRVVLNSRPGKNGNPVAENFRMEEVYLPDNINEGQVQVRTLYLSVDPYMRCRMNEDTGTDYITPWQLSQVVDGGGIGIIEESKHTNLTKGDFVTSFYWPWQTKVILDGNSLEKVDPQLVDGHLSYFLGAIGMPGLTSLIGIQEKGHITAGSNKTMVVSGAAGACGSVAGQIGHFLGCSRVVGICGTHEKCILLTSELGFDAAINYKKDNVAEQLRESCPAGVDVYFDNVGGNISDTVISQMNENSHIILCGQISQYNKDVPYPPPLSPAIEAIQKERNITRERFLVLNYKDKFEPGILQLSQWFKEGKLKIKETVINGLENMGAAFQSMMTGGNIGKQIVCISEEISL | soluble
2 | AALGPSSQNVTEYVVRVPKNTTKKYNIMAFNAADKVNFATWNQARLERDLSNKKIYQEEEMPESGAGSEFNRKLREEARRKKYGIVLKEFRPEDQPWLLRVNGKSGRKFKGIKKGGVTENTSYYIFTQCPDGAFEAFPVHNWYNFTPLARHRTLTAEEAEEEWERRNKVLN | soluble
3 | AAPGKPTIAWGNTKFAIVEVDQAATAYNNLVKVKNAADVSVSWNLWNGDTGTTAKILLNGKEAWSGPSTGSSGTANFKVNKGGRYQMQVALCNADGCTASDATEIVVADTDGSHLAPLKEPLLEKNKPYKQNSGKVVGSYFVEWGVYGRNFTVDKIPAQNLTHLLYGFIPICGGNGINDSLKEIEGSFQALQRSCQGREDFKVSIHDPFAALQKAQKGVTAWDDPYKGNFGQLMALKQAHPDLKILPSIGGWTLSDPFFFMGDKVKRDRFVGSVKEFLQTWKFFDGVDIDWEFPGGKGANPNLGSPQDGETYVLLMKELRAMLDQLSAETGRKYELTSAISAGKDKIDKVAYNVAQNSMDHIFLMSYDFYGAFDLKNLGHQTALNAPAWKPDTAYTTVNGVNALLTQGVKPGKIVVGTAMYGRGWTGVNGYQNNIPFTGTATGPVKGTWENGIVDYRQIASQFMSGEWQYTYDATAEAPYVFKPSTGDLITFDDARSVQAKGKYVLDKQLGGLFSWEIDADNGDILNSMNASLGNSAGVQLEHHHHHH | soluble
4 | AASPPTEEAVVATEPLTREDLIAYLASGCKSKEKWRIGTEHEKFGFEVNTLRPMKYDQIAELLNSIAERFEWEKVMEGDKIIGLKQGKQSISLEPGGQFELSGAPLETLHQTCAEVNSHLYQVKAVAEEMGIGFLGMGFQPKWRREDIPTMPKGRYDIMRNYMPKVGSLGLDMMLRTCTVQVNLDFSSEADMIRKFRAGLALQPIATALFANSPFTEGKPNGFLSMRSHIWTDTDKDRTGMLPFVFDDSFGFEQYVDYALDVPMYFAYRNGKYVDCTGMTFRQFLAGKLPCLPGELPTYNDWENHLTTIFPEVRLKRYMEMRGADGGPWRRLCALPAFWVGLLYDEDVLQSVLDLTADWTPAEREMLRNKVPVTGLKTPFRDGLLKHVAEDVLKLAKDGLERRGYKEVGFLNAVTEVVRTGVTPAENLLEMYNGEWGQSVDPVFQELLY | soluble
5 | ADETLAEFHVEMGGCENCHADGEPSKDGAYEFEQCQSCHGSLAEMDDNHKPHDGLLMCADCHAPHEAKVGEKPTCDTCHDDGRTAK | soluble
6 | AEAQNDPLLPGYSFNAHLVAGLTPIEANGYLDFFIDRPLGMKGYILNLTIRGQGVVKNQGREFVCRPGDILLFPPGEIHHYGRHPEAREWYHQWVYFRPRAYWHEWLNWPSIFANTGFFRPDEAHQPHFSDLFGQIINAGQGEGRYSELLAINLLEQLLLRRMEAINESLHPPMDNR | soluble
7 | AEMKNLKIEVVRYNPEVDTAPHSAFYEVPYDATTSLLDALGYIKDNLAPDLSYRWSCRMAICGSCGMMVNNVPKLACKTFLRDYTDGMKVEALANFPIERDLVVDMTHFIESLEAIKPYIIGNSRTADQGTNIQTPAQMAKYHQFSGCINCGLCYAACPQFGLNPEFIGPAAITLAHRYNEDSRDHGKKERMAQLNSQNGVWSCTFVGYCSEVCPKHVDPAAAIQQGKVESSKDFLIATLKPR | soluble
8 | AFMQDRLKIMRQQNPAASLQHQWVDYEQISSHLKRAVIAAEDARFLQHQGFDYKAIETAWKKNLKQRKWAAGGSTISQQLAKNLFLSTEKTVWRKSRETLITLMLEEFLTKRRILEIYLNIIEWGDGIFGIEAAARHYFGISAASLTPAQAAWLASIIPNPRFYDTRRTLPKLLNKSRIILSRLPAAKIP | not soluble
9 | AGCEGLRIGQSALQARLSDQIDKLTQAEQHANQMLIDVRSRNHDTMKHITAIKSAQPKADTQAYIQNWADQYSQYDRFLKGENAYVAGVLYDFLEKARASNVSVSLHMHTPLSSLPFSPADQVSLVGNILENALDSAAEAREKAEIKLETSLRSGLYVLTCENSTPGMDPKVLDTIYQSFGRSTKNGAHEGMGTYIIQKLVKGAFGRLDFTYRHPIFRLEIKIPFQ | not soluble
10 | AGGEDRGDGEPVSVVTVRVQYLEDTDPFACANFPEPRRAPTCSLDGALPLGAQIPAVHRLLGAPLKLEDCALQVSPSGYYLDTELSLEEQREMLEGFYEEISKGRKPTLILRTQLSVRVNAILEKLYSSSGPELRRSLFSLKQIFQEDKDLVPEFVHSEGLSCLIRVGAAADHNYQSYILRALGQLMLFVDGMLGVVAHSDTIQWLYTLCASLSR | not soluble
11 | AGMSEAPRAETFVFLDLEATGLPSVEPEIAELSLFAVHRSSLENPEHDESGALVLPRVLDKLTLCMCPERPFTAKASEITGLSSEGLARCRKAGFDGAVVRTLQAFLSRQAGPICLVAHNGFDYDFPLLCAELRRLGARLPRDTVCLDTLPALRGLDRAHSHGTRARGRQGYSLGSLFHRYFRAEPSAAHSAEGDVHTLLLIFLHRAAELLAWADEQARGWAHIEPMYLPPDDPSLEA | soluble
12 | AGTGVVSVQFNNGSSPASSNSIYARFKVTNTSGSPINLADLKLRYYYTQDADKPLTFWCDHAGYMSGSNYIDATSKVTGSFKAVSPAVTNADHYLEVALNSDAGSLPAGGSIEIQTRFARNDWSNFDQSNDWSYTAAGSYMDWQKISAFVGGTLAYGSTP | soluble
13 | AHHHHHHGSALSDKLDLVNPSEIRKLFDLAAGMKDVISLGIGEPDFDTPAHIKEYAKEGLDKGLTHYGPNVGLPELREAIAEKLKKQNGIEADPNSEIMVLVGANQAFLMSLATFLKDGEEVLIPSPMFVSYAPAVILAGGKPVEVPTYEDNEFRINVDDLKKHVSEKTRALIINSPNNPTGAVLTKKDLEEIADFANEHDLMIISDEVYEHFIYDGAKHYSIAALDGMFGRTITVNGFSKTFAMTGWRLGFVVAPSWVIEKMVKFQMYNATCPVTFIQYAAAKALRDERSWKAVEEMRKEYERRRNLVWKRLNEMGLPTVEPKGAFYIFPRIKDTGLSSKEFSELMLMEAKVAVVPGSAFGRAGEGYIRISYATAYEKLEEAMNRMEKVLKEKKLI | soluble
14 | AHHHHHHGSEFNIIIAGVGGQGGLTLSRIIGSAAMVEGYRVRIGETLGMSQRYGSVLSYLRFGDSVYSPLIEEGKANLMLALEPVEALRNAAFLGKGSYAIVNAYPIHTATTLVGKEKYPSLEEIKEALEKICRVEMMNFQKEADLINPRTTGVLMLGYAQGKGLLPLKKESIIEGIRLTLREKLWEINFKAFERGRELAKHVCCDV | soluble
15 | AHHHHHHGSEIKYRPEELTKLPRSVEYREGKVYMINQRLLPREFKVEEFTTVEAVAEAIKNMTVRGAPAIGAAAAFGLALYAETSKAKTKDEFFDGFYRAYETLKNTRPTAVNLFWALNRIKKLVEEHREDSLDEIKRLIVEEAQKIADEDVEANLRMGHYGAEVLPEGNILTHCNAGSLATVHLGTVGAVVRVMHKEGTLKLLWLDETRPVLQGARLSAWEYSYDGLNVKLIADNAAAFVMQQGKVDAIIVGADRIVANGDFANKIGTYMLAVLAKEHGIPFFTVAPLSSIDMSLSSGKEIPIEERSPEEVLTCGGCRIAPDVPVYNPAFDVTPHKYLTGIITDRGVVWPPFKRNLKKLFETL | soluble
16 | AHHHHHHGSKLKFWREVAIDIISDFETTIMPFFGNPDGGKLVKISPSGDETKLVDKLAEDLILSRITELGVNVVSEEVGVIDNESEYTVIVDPLDGSYNFIAGIPFFALSLAVFKKDKPIYAIIYEPMTERFFEGIPGEGAFLNGKRIKVRKTPDEKPSISFYSRGKGHEIVKHVKRTRTLGAIALELAYLAMGALDGVVDVRKYVRPTDIAAGTIIAKEAGALIKDSAGKDIDISFNATDRLDVIAVNSEELLKTILSLLE | soluble
17 | AHHHHHHGSKRRAVVLFSGGLDSTACLYWAKKQYDEVIMLTVNYGSNEERVTNKVAEYFSKELDVRLKIVKLDFLKEFSEIRGSSLVGGEVPRVTAEELEDIEKASETARSVWIPARNLVLISVAASLLDALGGGDIIVGFNAEEATTFPDNSREFVEKLNEALRFATLNPVKVVAPLIDLDKRGIAKLLKELNAKYEYSNSCYNPKGFTEDGRPIHCGECESCVRRHKGLIEGIGEDKTVYAITPRI | not soluble
18 | AHHHHHHGSKVIASAPAKVILFGEHSVVYGKPAIAAAIDLRTFVEAELIREKKIRIEAHDIKVPGLTVSFSENEIYFETDYGKAAEVLSYVREAINLVLEEADKKNVGIKVSITSQIPVGAGLGSSAAVAVATIGAVSKLLGLELSKEEIAKMGHKTELLVQGASSGIDPTVSAIGGFIFYEKGKFEHLPFMELPIVVGYTGSSGPTKELVAMVRKRYEEMPELIVPILEAMGKVVEKAKDVILSNVDKEEKFERLGVLMNINHGLLDALGVSTKKLSELVYAARVAGALGAKITGAGGGGCMYALAPNKQREVATAIRIAGGTPMITEISREGLKIEEVIK | not soluble
19 | AHHHHHHGSPKKERKVEGEEVIRVPLPEGNQLFGVVEQALGAGWMDVRCEDGKVRRCRIPGRLRRRVWIKVGDLVIVEPWPVQSDKRGDIVYRYTQTQVEWLLRKGKISQEFLTGGSLLLE | not soluble
20 | AHHHHHHGSVLKCVVCGREYPEDEVRYRCECGGLLEVVIDLDKVDTSIFNGKEIKLWKYESWLPVKKRVSLEEGGTPLYRLLNLESDLGVKELYAKNEGANPTGSFKDRGMTVGVSKALELGMDKVICASTGNTSASLAAYAAKAGIKAYVLIPSGKIALGKLAQAIIYGARVVPIKGNFDDALRVVVETSKELGIYMLNSINPFRLEGQKTIAYEIYDQLGKVPDNVILPVGNAGNISAIWKGFKEMYEAGVIDELPRMIGIQAEGASPLAKAWKEKRKFQPEESPETIASAIRIGNPANWIKAWRAVEESGGLFESVSDEEILRAQKLLASREGLFVEPASAASLAGLIKLLESGEISRNESYVLITTGHGLKDPNIVIKNFQVPEPIDPTLEAFKEVIE | soluble
21 | AIAAMGRTTQFTLDEVAKHADKDSCWLVIDGKVYAVEKFLNEHPGGEDVLLETAGRDATREFEDVGHSKSAREQLKEFYIGDVREPTAEELAAKRAVQASAAAERRDGDGVRANGLGKERLFAGGAFGAEPLSGGSSTWTLLKRLFVPVCIAVLVYLVREYSKQVQTGG | soluble
22 | AIADKKAMWDRFYTENGSKGQFKNFEWFFGFPSVKDLVLPALQAMSCSHSGPLHILDMGCGTSALGPCIYSTSPCAVRVTCADISPVAVKLMEEHTKSTSTQPCNPSSALVFLELDCTQMTGHFKSRSLDLILDKGTTDALVRSKEGQVKAGQILRQSLQVLRPSGSFLQFSDEDPDARLIWLEREVQGAEVTADVGVQEIGELRGVSYFCYQISPRSRPHS | soluble
23 | AIAEGEYRLTRSYAVVDITAQVDDSAILEPFACVMARARIGPRTRVGAHSVVGVGVSVGADCCIYHHVTLLNCDIGDRCVIHSGVAIGQDGFGFEVDQQTGKVRKKPQELSVRIGNEVEIGANTCIDRGSWRDTLIEDAVKIDNLVQIGHNVQVGANTFICGQAGVAGSTKIGRYCRFGGRSGAVDHLEIGDHVDVAANSVLTRNAPGHAVYAGFPAMPMREWRHQQVTLRRLSRAGKRQVDVSADDPEFPK | soluble

From the DeepSol protein solubility set
